The nature of the data set: melting temperature; UV melt of duplexes.

The values below come from the array DNA melting data of Ke et al..

As usually defined, the Tm is the temperature at the midpoint of the melting transition.

Regarding “AAGGCGAGTCAGGCTCAGTG+CACTGAGCCTGACTCGCCTT ((((((((((((((((((((+))))))))))))))))))))”, the Tm turned out to be 64.5 °C (sodium 0.07 M, strand 2 µM); 67.7 °C (sodium 0.12 M, strand 2 µM); 71.4 °C (sodium 0.22 M, strand 2 µM); 75.1 °C (sodium 0.62 M, strand 2 µM); 76.3 °C (sodium 1.02 M, strand 2 µM).
For the substance “AACGCGCGTGAATTCTGGCCGCAA+TTGCGGCCAGAATTCACGCGCGTT ((((((((((((((((((((((((+))))))))))))))))))))))))”, under “sodium 0.12 M, strand 6 µM”, the Tm was 75.8 °C.
Take “AACCTGCAACATGGAGTTTTTGTCTCATGC+GCATGAGACAAAAACTCCATGTTGCAGGTT ((((((((((((((((((((((((((((((+))))))))))))))))))))))))))))))”: the Tm runs as follows: (sodium 0.07 M, strand 2 µM) 64.5 °C; (sodium 0.12 M, strand 2 µM) 68.3 °C; (sodium 0.22 M, strand 2 µM) 72.5 °C; (sodium 0.62 M, strand 2 µM) 77.7 °C; (sodium 1.02 M, strand 2 µM) 78.7 °C.
Turning to “AGTCTGGTCTGGATCTGAGAACTTCAGGCT+AGCCTGAAGTTCTCAGATCCAGACCAGACT ((((((((((((((((((((((((((((((+))))))))))))))))))))))))))))))”, the midpoint of thermal melting (Tm) reads like this: (sodium 0.07 M, strand 2 µM) 66.3 °C; (sodium 0.12 M, strand 2 µM) 70.4 °C; (sodium 0.22 M, strand 2 µM) 74.5 °C; (sodium 0.62 M, strand 2 µM) 78.8 °C; (sodium 1.02 M, strand 2 µM) 80.6 °C.
The matching figures for “GCGAGCGACAGGTTACTTGGCTGAT+ATCAGCCAAGTAACCTGTCGCTCGC (((((((((((((((((((((((((+)))))))))))))))))))))))))”: 67 °C, 70.8 °C, 74.7 °C, 78.6 °C and 80.1 °C.
Regarding “AGAAGGGAGAGAAAAAGAAA+TTTCTTTTTCTCTCCCTTCT ((((((((((((((((((((+))))))))))))))))))))”, the Tm (sodium 1 M, strand 2 µM) came out at 61.9 °C.
For the substance “ATATATATAGCTATATATAT+ATATATATAGCTATATATAT ((((((((((((((((((((+))))))))))))))))))))”, the Tm (sodium 0.12 M, strand 5 µM) amounted to 44.8 °C.
With “AATATCTCTCATGCGCCAAGCTACA+TGTAGCTTGGCGCATGAGAGATATT (((((((((((((((((((((((((+)))))))))))))))))))))))))”, the Tm runs as follows: (sodium 0.07 M, strand 2 µM) 62.1 °C; (sodium 0.12 M, strand 2 µM) 65.7 °C; (sodium 0.22 M, strand 2 µM) 70.3 °C; (sodium 0.62 M, strand 2 µM) 75.1 °C; (sodium 1.02 M, strand 2 µM) 76.5 °C.
For “CGGGACCAACTAAAGGAAAT+ATTTCCTTTAGTTGGTCCCG ((((((((((((((((((((+))))))))))))))))))))”, in that order: 53.7 °C, 57.7 °C, 61.7 °C, 66.7 °C and 68.5 °C.
Regarding “AAAAAAAAAGCTTTTTTTTT+AAAAAAAAAGCTTTTTTTTT ((((((((((((((((((((+))))))))))))))))))))”, the midpoint of thermal melting (Tm) (sodium 0.12 M, strand 5 µM) turned out to be 51 °C.
Turning to “CAACTTGATATTAATA+TATTAATATCAAGTTG ((((((((((((((((+))))))))))))))))”, the melting temperature (Tm) (sodium 1 M, strand 18 µM) is 52 °C.
For “AATATATGAATTCTAATTAA+TTAATTAGAATTCATATATT ((((((((((((((((((((+))))))))))))))))))))”, the Tm (sodium 0.12 M, strand 6 µM) was 44.7 °C.
On to “GTCCACGCCCGGTGCGACGG+CCGTCGCACCGGGCGTGGAC ((((((((((((((((((((+))))))))))))))))))))”, for which the Tm runs as follows: (sodium 0.07 M, strand 2 µM) 70.9 °C; (sodium 0.12 M, strand 2 µM) 73.9 °C; (sodium 0.22 M, strand 2 µM) 77.3 °C; (sodium 0.62 M, strand 2 µM) 79.8 °C; (sodium 1.02 M, strand 2 µM) 81.1 °C.
With “AAAAAAAAGAATTCTTTTTTTT+AAAAAAAAGAATTCTTTTTTTT ((((((((((((((((((((((+))))))))))))))))))))))”, the Tm (sodium 0.12 M, strand 6 µM) was determined as 49.9 °C.
Consider “CATATTGGCCAATATG+CATATTGGCCAATATG ((((((((((((((((+))))))))))))))))”, for which the Tm (sodium 1 M, strand 0.0001 M) turned out to be 65.3 °C.
